Ends that are not written are not given here.
T1: FRS2_PTB (Homo sapiens, UniProt Q8WU20)
T1 construct: FRS2-PTB 11-140aa; 6xHis; made in house; host or cells: E. coli BL21 (DE3)
T1 sequence (Q8WU20 11-140): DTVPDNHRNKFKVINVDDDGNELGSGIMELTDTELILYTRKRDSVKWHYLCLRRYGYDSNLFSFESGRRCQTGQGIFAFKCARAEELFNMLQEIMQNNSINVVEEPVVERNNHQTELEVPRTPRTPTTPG

T2: GB1-FRS2-PTB (Homo sapiens, UniProt Q8WU20)
T2 construct: FRS2-PTB 11-140aa; 6xHis (N); made in house; host or cells: E. coli BL21 (DE3)
T2 sequence (Q8WU20 11-140): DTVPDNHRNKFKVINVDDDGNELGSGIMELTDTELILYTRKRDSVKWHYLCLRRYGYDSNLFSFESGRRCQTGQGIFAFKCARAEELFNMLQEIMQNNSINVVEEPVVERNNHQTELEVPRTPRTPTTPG

T3: GB1-FRS2_PTB (human, UniProt Q8WU20 15-135, 2nd Generation BLUE-NHS dye (in the MST only))
T3 construct: Fibroblast growth factor receptor substrate 2 (FRS2), human, PTB domain, residues 15 to 135; Vector pEM3BT2; also called GB1-fused PTB domain; source: E. coli BL21 (DE3), purified (Ni-NTA); not shown: His6, N-terminal, kept
T3 sequence (looked up): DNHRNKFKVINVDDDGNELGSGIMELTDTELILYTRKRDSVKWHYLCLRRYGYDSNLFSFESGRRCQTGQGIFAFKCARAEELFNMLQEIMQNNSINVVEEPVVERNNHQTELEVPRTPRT

T4: FRS2_PTB (PTB domain of human FRS2) (human, UniProt Q8WU20 15-135)
T4 construct: Fibroblast growth factor receptor substrate 2 (FRS2), human, PTB domain, residues 15 to 135 as the methods state for the PTB domain constructs; The limits 15-135 are stated in the methods sentence that describes the GB1 fusions; also called FRS2-PTB domain; PTB domain of FRS2; source: E. coli BL21 (DE3), purified (Ni-NTA)
T4 sequence (looked up): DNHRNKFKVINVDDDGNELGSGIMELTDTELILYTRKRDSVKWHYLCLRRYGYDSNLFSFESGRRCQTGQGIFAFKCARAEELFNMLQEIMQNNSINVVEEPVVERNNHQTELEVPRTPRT


Legend:
[1] = target: T1, FRS2_PTB; assay: nano differential scanning fluorimetry (nanoDSF); type: binding; conditions: 500 μM ligand
Method: (§1) Assay establishment and pilot nanoDSF experiments were performed with a Tycho® system. Each experiment was performed by mixing the protein and ligand of interest at a 1:1 ratio and subsequent incubation for 15–30 min at room temperature. Controls of protein alone and ligand alone in identical buffer compositions as for the complex were measured accordingly. The temperature gradient ranged from 35 to 95 °C, and the heating rate was 30 °C/min. Inflection temperatures TI were calculated from the first derivative of the spectra obtained at the ratio of the signals at 350 nm to those at 330 nm. ΔTI of a complex was calculated as following: ΔTI,complex = TI,complex – TI,protein.
The in-built software version 1.1.5.668 (NanoTemper Technologies, Munich, Germany) and Microsoft Office Excel 365 (Microsoft Corp., Seattle, USA) was used for data analysis. Data was plotted with GraphPad Prism vers. 8.3.0 (GraphPad Software, San Diego, USA).
Purified FRS2_PTB or GB1_FRS2_PTB protein tagged with 6 × Histidine residues and the B1 immunoglobulin binding domain of the streptococcal protein G (GB1) were diluted in the protein buffer (100 mM sodium phosphate, 50 mM NaCl, 0.5 mM EDTA, 50 mM arginine, 1 mM TCEP, pH 7.0) to 30 μM, GB-1 to 40 μM. FGFR_PEP, compounds or paracetamol (PARA) as negative control were dissolved at 1 mM in the protein buffer supplemented with 10% DMSO. Compound and protein were mixed at 1:1 volume ratio yielding a final concentration of 15 μM and 20 μM for FRS2_PTB/GB1_FRS2_PTB and GB1, respectively, as well as 500 μM for FGFR_PEP or compounds. The mixture was incubated for 15 min. Each compound was measured in triplicates. Protein controls were measured in six replicates in the beginning. The quality of the screen was assessed by the Z-factor. nanoDSF validation studies were performed on a Prometheus® system in high sensitivity capillaries. Samples were heated with 1 °C/min from 20 to 95 °C. Each compound was measured in triplicates. GB1-FRS2_PTB and GB1 were diluted in the protein buffer (100 mM sodium phosphate, 50 mM NaCl, 0.5 mM EDTA, 50 mM arginine, 1 mM TCEP, pH 7.0) to 30 μM. Compounds 3.3, 3.4, 3.18 as well as the 3.18 analogues were dissolved in 100% DMSO at 50 or 100 mM and further diluted to 1 mM with a final DMSO-concentration of 100%. FGFR_PEP was dissolved at 1 mM in the protein buffer supplemented with 10% DMSO. Compound and protein were mixed at 1:1 volume ratio yielding final concentrations of 15 μM protein and 500 μM for the compounds. FGFR_PEP was measured against both GB1-FRS2_PTB and GB1, all other compounds only against GB1-FRS2_PTB. The mixture was incubated for 15 min before measurement. The data was analyzed for both the ratio of signals at 330 and 350 nm and at 350 nm alone. […]

[2] = target: T2, GB1-FRS2-PTB; assay: nanoDSF with GB1-fused PTB domain; type: binding
Method: as §1, with “TI,protein. […]” for “TI,protein.”
Purified FRS2_PTB or GB1_FRS2_PTB protein tagged with 6 × Histidine residues and the B1 immunoglobulin binding domain of the streptococcal protein G (GB1) were diluted in the protein buffer (100 mM sodium phosphate, 50 mM NaCl, 0.5 mM EDTA, 50 mM arginine, 1 mM TCEP, pH 7.0) to 30 μM, GB-1 to 40 μM. […] Each compound was measured in triplicates. Protein controls were measured in six replicates in the beginning. The quality of the screen was assessed by the Z-factor. nanoDSF validation studies were performed on a Prometheus® system in high sensitivity capillaries. […] Each compound was measured in triplicates. […] FGFR_PEP was measured against both GB1-FRS2_PTB and GB1, all other compounds only against GB1-FRS2_PTB. […]

[3] = target: T3, GB1-FRS2_PTB; assay: MST; GB1-FRS2_PTB labelled with BLUE-NHS dye at 25 nM; FGFR_PEP in 1:1 serial dilution from 1 mM to 61.04 nM; 25 C; 100 mM sodium phosphate, 50 mM NaCl, 0.5 mM EDTA, 50 mM arginine, 1 mM TCEP, pH 7.0, with and without DMSO; MST trace analysis; conditions: both partners purified
[4] = target: T4, FRS2_PTB (PTB domain of human FRS2); assay: nanoDSF (thermal shift); 15 uM protein mixed with 500 uM FGFR_PEP, incubated 15 min; 100 mM sodium phosphate, 50 mM NaCl, 0.5 mM EDTA, 50 mM arginine, 1 mM TCEP, pH 7.0, with DMSO; shift of the inflection or melting temperature against protein alone; conditions: both partners purified
[5] = target: T3, GB1-FRS2_PTB; assay: as above; conditions: both partners purified

Molecule | nanoDSF shift of the inflection point of the melting curve (ΔTm) [1] [°C] | nanoDSF shift in the melting temperature [2] [°C] | Kd [3] [nM] | shift of the inflection point of the melting curve (nanoDSF) [4] [°C] | shift in the melting temperature (nanoDSF) [5] [°C]
HSQMAVHKLAKSIPLRRQVTVS [FGFR peptide, reference compound] | 19 ± 0.1 | 10.5 ± 0.1 |  |  | 
HSQMAVHKLAKSIPLRRQVTVS (also called FGFR1 peptide) [FGFR peptide (FGFR_PEP)] |  |  | 1000 ± 200 | 19 ± 0.1 | 10.5 ± 0.1
